Results as given in the nanobody polyreactivity screen of Harvey et al. (2022).

Test: yeast display, Sf9 membrane polyspecificity reagent, FACS + sequencing; frameworks hold sequencing errors
Summary of the method: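 Galactose induction of a Saccharomyces cerevisiae BJ5465 synthetic nanobody display library ran 36–48 hours. The cells were then stained for 1 hour at 4 °C with 10% biotinylated, detergent-solubilized Sf9 membrane reagent, pulled down on streptavidin microbeads and FACS-sorted into low and high (top ~1%) gates on expression and reagent-binding fluorescence. Labels for polyreactivity follow the gate of origin.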

| Sequence | polyreactivity (PSR sort gate) |
| --- | --- |
| QDQHVESGGGLVQAGGSLRLSCDASGTTIYDYVMGWYRKAPGKERELVAAITRGGSTNYADSVKGRFTISRDNAKNTVYLQMNRLKPEDTAVYYCAARPCIWARAGYYWGQGTQVTVSS | high polyreactivity |
| QVQLVESGGGLVQAGGSLRLSCAASGSTFPYYVMGWYRQAPGKERELVAAISWSGASTYYADSVKGRFTISRDNAKNTVYLQMNSLKPEDTAVYYCNRPKWYDGDYWGQGTQVTVSS | high polyreactivity |
| QVQLVESGGGLVQAGGSLRLSCAASGILSNYYAMGWYRQAPGKERELVASIRLSGGRTYYADSVKGRFTISRDNAKNTVYLQMNSLKPEDTAVYYCAAGTRRTYSKFDYWGQGTQVTVSS | high polyreactivity |
| QVQHVESGGGLVQAGGSLLLSCAASGSIFGGNAKGWYRQAPGKERELVAVITSRGGSTYYADSVKGRFTISRDNAKNTVSLQMNSLKPEDTAVYYCNKRYLNRREGTDDYWGQGTQVTVSS | high polyreactivity |
| QVQLVESGGGLVQAGGSLRLSCAASGITILNYVMGWYRQAPGKERELVAGINFSGDGTYYADSVKGRFTISRDNAKNTVFLLMNSLKPEDTAVYYCAADWLSVSRIYYSWGQGTQVTVSS | low polyreactivity |
| QVQLVESGGGLVQAGGSLRLSCAASGRTFANYAMGWYRQAPGKERELVATITWSDGSTYADSVKGRFTISRDNAKNTVYLQMNSLKPEDTAVYYCATRRYGKVFYPSQYTRYDYWGQGTQVTVSS | high polyreactivity |
| QVQLVESVGGLVQAGGSLRLSCAASGRIFDSYTMGWYRQAPGKERELVAAISRGGGSTYYADSVKGRFTISRDNAKYTVYLQMNSLKPEDTAVYYCAASSYLNSRFKFDYWGQGTQVTVSS | low polyreactivity |
| QVQLVESGGGLVQAGGSLRLSCAASGRTFDPNVMGWYRQAPGKERELVAAISRGGSTYYADSVKGRFTISRDNAKNTVYLQMNSLKPEDTAVYYCAATHYGHSISYWFDYWGQGTQVTVSS | high polyreactivity |
| QVQLVESGGGIVQAGGSLRLSCAATGNTFRYYTMGWYRKAPGKERELVAAINYRGSRTYYADSVKGRFTISRDNAKNTVYLQINSLKPEDTAVYYCARAYNAGYRYRSDYWGQGTQVTVSS | high polyreactivity |
| QVQLVESGGGLVQAGRSLRLSCAASGRTFGTNAMGWYRQAPGKERELVAAISRRGGSTYYADSVKGRFTISRDNAKNTVYLQMNCLKPEDTAVYYCASDFWYYQYPYGGGGYWGQGTQVTVSS | low polyreactivity |
| QVQLVESGGGLVQAGGSLRLTCAASGITFYDNAMGWYRQAPGKERELVAGISYDGDSTYADSVKGRFTNSRDNAKNTVYLQMNSLKPEDTAVYYCAADSSGEYPGGYWGQGTQVTVSS | low polyreactivity |
| QVQLVESGGGLVQAGGSLRLSCAASGRIFRYNAMGWYRQAPGKERELVAAISTSGTRTFYADSVKGRFTISRDNAMKTVYLQMNSVKPEDTAVYYCNKVAGPGKLGPYYYWGQGTQVTVSS | high polyreactivity |
| QVQLVESGGGLVQAGGSLRLSCAASGFTFYRYAMGWYRQAPGKERELVAAISSSGGTTYYADSVKGRFTISRDNAKNTVYLQMNSLKPEDTAVYYCAARGWPTWGWGYDYWGQGTQVTVSS | high polyreactivity |
| QVKVVESGGGLVQAGGSLRLSCAASGSIYVGYAMGWYRQAPGKERELVAAISWSGDSTYYADSVKGRFTISRDNAKNTVYLQMNSLKPEDTAVYYCAVDYAEIGPRREFEYDYWGQGTQVTVSS | low polyreactivity |
| QVQLVESGGGLVQAGGSLRLSCAASGFTFSSNAMGWYRQAPGKERELVAAIRSDGVRTYYADSVKGRFTISRDNAKNTVYLQMNSLKPEDTAVYYCNSVSDVRIGAGDYWGQGTQVTVSS | high polyreactivity |
| QDQLVESGGGLVQAGGSLRLSCAASGRIFVYNDMGWYIQAPGKERELVAAISSVGTTYYADSVKGRFTISRDNAKNTVYLQMNSLIPEDTAVYYCAVTRYQSPPRYYYWGQGTQVTVSS | low polyreactivity |
| QVQLVESGGGLVQAGGSLRLSCAASGRTSSVYARGWSRQAPGKEREWVAAITSSGGSTYYADSVKGRFTISRDNAKNTVYLQMNSLNPEDTAVYYCAAETYPVWGVAFYYWGQGTQVTVSS | high polyreactivity |
| QVHLVESAGCLVQAGGSLRLSCAASGSIIYLYAMGWYRQAPGKERELVAAISSGGSTNYADSVKGRFTISRDNAKNSVYLQMNSLKPEDTAVYYCAATLPGWYNEYDSWGQGTQVTVSS | low polyreactivity |
| QVQLVESGGGLVQAGASLRLSCAASGSTLWYYAMGWYRQAPGKERELVADITSSGNTNYADSVKGRFTISRDNAKNTVYLQMNSLKPEDTAVYYCAADSANYQWYLSWQKDDYWGQGTKVTVSS | low polyreactivity |
| QVQLVESGGGLVQAGGSLRLSCAASGSTFGYYAMGWYRQAPGKERELVAAISDGGSTYYADSVKGRFTISRDNAKNTVYLQMNSLKPEDTAVYYCAAEYLAYDWYEYYYWGQGTQVTVSS | high polyreactivity |
| QVQIVESGGGLVQAGGSLRLSCAASGRIFFVNTKGWYRQAPGKERELVATISWSGGSTYYADSVKGRFTISRDNAKNTVYLQMNSLKPEDTAVYYCNRSLTGYDELGYPVPYTYDYWGQGTQVTVSS | low polyreactivity |
| QVQLVESGGGLVQAGGSLRLSCAASGIIVYYYAMGWYRPAPGKERELVAAISTSGTRTFYADSVKGRFTISRDNAKKTVYLQMNSLKPEDTAVYYCAARIYKPQRCTSLYRTSGYWGQGTQVTVSS | high polyreactivity |

| Sequence | polyreactivity (PSR sort gate) |
| --- | --- |
| QVQLVESGGGLVQAGGSLRLSCAASGSILYYYAMGWYRQAPGKERELVAAITRSGGSTYYADSVKGRITISRDNAKNTVYLQMNSLKPEDTAVYYCAKDAHAYRDLDYWGQGTQVTVSS | low polyreactivity |
| QVQLVESGGGLVQAGGSLRLSCAASGRTFTHNAMGWYRQAPGKERELVAGITSGGSTNYADSVKGRFTISRDNAKNTVYLQMNSLKPEDTAVYYCNKVFFWSRYKGYYYWGQGTQVTVSS | high polyreactivity |
| QVQLVESGGGLVQAGGSLRLSCAASVLIFEAYAMGWYRQAPAKERELVATINKSGGSTYYADSVKGRFTISRDNAKNTVYLQMNSLKPEDTAVYFCAAFFLLPSPWPSYWCWNGDYWGQRTQVTVSS | low polyreactivity |
| QVQLVESGRGIVQAGGSLRLSCAASGRTFYVYTMGWYRQAPGKERELVAAITSGGSTNYADSVKGRFTISRDNAKNTLYLQMNSLKPEDTAVYYCAARVSTVFKRYYYWGQGTQVTVSS | high polyreactivity |
| QVQLVESGGGLVQAGGSLRLSCAASGLIFYVYAMGWYRQAPGKERELVADITYSGGRTYYADSVKGRFTISRDKAKNTVYLQMNSLKPEDTAVYYCAADSVKYGIDPGLPNSDDYWGQGTQVTVSS | low polyreactivity |
| QVQLVESGGGLVQAGGSLSLSCAASGRTFGSYAMGWYRQAPGKERELVAAITGSGGSTYYADSVKGRFTISRDNAKNNVYLQMNSLKPEDTAVYYCRYLFGYIAMDYWGQGTQVTVSS | low polyreactivity |
| QVQLVESGGGLVQAGGILRLSCAASVRIFGVYAMGWYRQAPGKERELVAAITSGGSTTYADSVKGRFTISRDNAKNNVYLQMNSLKQEDTAVYYCNKEPQPFFLYGYWGQGTQVTVSS | low polyreactivity |
| QVQLVESGGGLVQAGGSLRLSCAASGRILYPYAMGWYRQAPGKERELVAAITFRGGNTYYADSVKGRFTISRDNAKNTVYLQMNSLKPEDTAVYYCAKRGGYWHKFDYWGQGTQVTVSS | high polyreactivity |
| QVQLVESGGGLVQAGGSLRLSCAASGFTFYRYAMGWYRQAPGKERELVAAITWSGGSTYYADSVKGRFTISRDNAKNTVYFQMNSLKPEDTAVYYCAASRWIFQVNDYDYWGQGTQGTVSS | high polyreactivity |
| QVQLVESGGGLVQAGGSLRLSCAASGFTFGGYAMGWYRQAPGKERELVAAITGSGGNTFYADSVKGRFTISRDNAKNTVYLQMNSLKPEDTAVYYCAALAPYIGGVDYDYWGQGTQVTVSS | low polyreactivity |
| QVQLVESGGGLVQAGGSLRLSCAASGLIFPGYAMGWYRQAPGKERELVAAISWSGGTTYYADSVKGRFTISRDNAKNTVYLQMNSLKPEDTAVYYCNAVYLQGYDYWGQGTQVTVSS | low polyreactivity |
| QVQLVESGGGLVQAGGSLRLSCAASGSTSRYAMGWYRQAPGKERELVAAITRSGGTTYYADSVKGRFTISRDNAKNTVYLQMNSLKPEDTAVYYCATSDRQVKYDYWGQGTQVTVSS | low polyreactivity |
| QVQLVESGGGLVQAGGSLRLICAASGFIITRNAMVWYRPAPGKERELGAVISYGGGSTYYADSVKGRFTISRDNAKNTVYLQMNSLKPEDTAVYYCAADPTWRYYYHYTYYYWGQGTQVTVSS | high polyreactivity |
| QVQLVESGGGLVQAGGSLRLSCAASGSTFQRNAMGWYRQAPGKERELVAVITRRGASTYYADSVKGRFTISRDYEKNTVYLQMKSLKAEDTAVYYCNKVPYGRDHHLLFDYWGQGTQVTVSS | high polyreactivity |
| QVQLVESGGGLVQAGGSLRLSCAASGITIGRYAMGWYRQAPGKERELVAAISWSGGSTYYADSVKGRFTISRDNAKNTVYLQMNSLKPEDTAVYYCNKLRRYSEYNADDGDYWGQGTQVTVSS | high polyreactivity |
| QVQLVESGGGLVQAGGSLRLSCAASGSNFLGNAMGWSIQAPGKERELVAAISSITGRTYYADSVKGRFTISRDNAKNTVYLQMNSLKPEDTAVYYCAAVQGANYYNEFDYWGQGTQVTVSS | high polyreactivity |
| QVQLVESGGGLVQAGGSLRLSCAASGNIFAYYAMGWYRQAPGKERELVAAISRRGGSTYYADSVKGRFTISRDNAKNTVYLQMNSLKPEDTAVYYCNADTGNRGYDYWGQGTQVTVSS | high polyreactivity |
| QVQLVESGGGLVQAGASLRLSCAASGIILSVYAMGWYRQAPGKERELVAAITTVGNTYYADSVKGRFTISRDNAKNTVYLEMNCLKPEDTAVYYCAAKRWTTYKYNYWGQGTQVTVSS | high polyreactivity |
| QVQLVESGGGLVQSGGSLRLSCAASGRTFRYYVMGWYRQAPGKERELVADISRGGGRTRYADSVKGRFTISRDNAKNTVYLQMNSLKRDDTAVYYCGARSYSGQFGYWGQGTQVTVSS | high polyreactivity |
| QVQLVESGGGLVQAGGSLRLSCAASGFTFRSYVMGWYRQAPGKERELVASISSGGITKYADSVKGRFTISRDNAKNTVYLQMNSLKPEDTAVYYCNARTYSNTVLNYGLQYGYDYWGQGTQVTVSS | high polyreactivity |
| QVQLVESGGGLVQAGGSLRLSCAASGSIFSGYAMGWYRQAPGKERELVAAISTSSVRTYYADSVKGRFTISRDNAKNTVYLQMNSLKPEDTAVYYCAARDGGSYTPMYYWGHGTQVTVSS | high polyreactivity |
